From patent US20140100265

Molecular target: ribosomal protein S6, P62754

B1: hp70S6K (delC/T389E), constitutively active form of human p70S6K protein (protein)
chain: MAGVFDIDLDQPEDAGSEDELEEGGQLNESMDHGGVGPYELGMEHCEKFEISETSVNRGPEKIRPECFELLRVLGKGGYGKVFQVRKVTGANTGKIFAMKVLKKAMIVRNAKDTAHTKAERNILEEVKHPFIVDLIYAFQTGGKLYLILEYLSGGELFMQLEREGIFMEDTACFYLAEISMALGHLHQKGIIYRDLKPENIMLNHQGHVKLTDFGLCKESIHDGTVTHTFCGTIEYMAPEILMRSGHNRAVDWWSLGALMYDMLTGAPPFTGENRKKTIDKILKCKLNLPPYLTQEARDLLKKLLKRNAASRLGAGPGDAGEVQAHPFFRHINWEELLARKVEPPFKPLLQSEEDVSQFDSKFTRQTPVDSPDDSTLSESANQVFLGFEYVAPSVLES
**Q.** Which “phosphorylation of ribosomal protein S6 (immunoperoxidase staining of SN sections after AAV transduction)” value does the source give for B1 here?
**A.** hp70S6K(CA) induces a detectable increase in phosphorylation of ribosomal protein S6
